The series deals with TtCST WT (Ctc1-Stn1-Ten1, co-expressed with p50) (Tetrahymena, UniProt A0PGB2;Q6JXI5;D2CVN7;D2CVN8 1-622;1-373;1-164;1-422). As to the kind of experiment: EMSA.
Chain of TtCST WT (Ctc1-Stn1-Ten1, co-expressed with p50) (A0PGB2 whole entry, chain 1 of 4): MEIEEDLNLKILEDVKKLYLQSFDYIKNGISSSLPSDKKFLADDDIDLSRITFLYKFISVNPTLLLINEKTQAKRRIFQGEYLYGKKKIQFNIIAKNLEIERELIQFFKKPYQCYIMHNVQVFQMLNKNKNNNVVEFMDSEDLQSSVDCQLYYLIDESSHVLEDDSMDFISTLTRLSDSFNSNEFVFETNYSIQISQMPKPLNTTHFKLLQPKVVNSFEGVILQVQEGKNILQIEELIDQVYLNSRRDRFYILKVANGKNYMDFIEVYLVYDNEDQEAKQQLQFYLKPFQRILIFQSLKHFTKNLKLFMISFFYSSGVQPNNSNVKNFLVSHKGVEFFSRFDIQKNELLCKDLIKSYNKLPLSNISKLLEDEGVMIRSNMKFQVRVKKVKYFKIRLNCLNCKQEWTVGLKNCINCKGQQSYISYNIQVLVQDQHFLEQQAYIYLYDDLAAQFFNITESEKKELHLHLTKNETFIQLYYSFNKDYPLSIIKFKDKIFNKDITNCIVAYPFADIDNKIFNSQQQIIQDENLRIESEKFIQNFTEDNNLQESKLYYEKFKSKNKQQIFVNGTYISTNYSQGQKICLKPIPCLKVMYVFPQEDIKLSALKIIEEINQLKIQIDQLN
Chain of TtCST WT (Ctc1-Stn1-Ten1, co-expressed with p50) (Q6JXI5 whole entry, chain 2 of 4): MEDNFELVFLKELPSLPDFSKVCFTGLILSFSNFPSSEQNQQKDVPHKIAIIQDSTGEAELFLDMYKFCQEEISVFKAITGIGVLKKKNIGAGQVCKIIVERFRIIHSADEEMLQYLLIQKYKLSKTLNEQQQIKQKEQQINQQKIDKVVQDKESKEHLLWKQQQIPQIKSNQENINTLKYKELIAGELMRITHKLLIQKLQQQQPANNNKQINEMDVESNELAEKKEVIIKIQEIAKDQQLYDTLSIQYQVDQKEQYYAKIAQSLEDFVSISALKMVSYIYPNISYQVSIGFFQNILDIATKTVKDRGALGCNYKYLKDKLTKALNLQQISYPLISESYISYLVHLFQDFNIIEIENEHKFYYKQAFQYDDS
Chain of TtCST WT (Ctc1-Stn1-Ten1, co-expressed with p50) (D2CVN7 whole entry, chain 3 of 4): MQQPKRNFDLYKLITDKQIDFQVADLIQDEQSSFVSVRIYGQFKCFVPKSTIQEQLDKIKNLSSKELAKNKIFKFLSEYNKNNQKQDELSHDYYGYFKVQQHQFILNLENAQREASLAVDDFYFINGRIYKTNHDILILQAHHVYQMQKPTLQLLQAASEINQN
Chain of TtCST WT (Ctc1-Stn1-Ten1, co-expressed with p50) (D2CVN8 whole entry, chain 4 of 4): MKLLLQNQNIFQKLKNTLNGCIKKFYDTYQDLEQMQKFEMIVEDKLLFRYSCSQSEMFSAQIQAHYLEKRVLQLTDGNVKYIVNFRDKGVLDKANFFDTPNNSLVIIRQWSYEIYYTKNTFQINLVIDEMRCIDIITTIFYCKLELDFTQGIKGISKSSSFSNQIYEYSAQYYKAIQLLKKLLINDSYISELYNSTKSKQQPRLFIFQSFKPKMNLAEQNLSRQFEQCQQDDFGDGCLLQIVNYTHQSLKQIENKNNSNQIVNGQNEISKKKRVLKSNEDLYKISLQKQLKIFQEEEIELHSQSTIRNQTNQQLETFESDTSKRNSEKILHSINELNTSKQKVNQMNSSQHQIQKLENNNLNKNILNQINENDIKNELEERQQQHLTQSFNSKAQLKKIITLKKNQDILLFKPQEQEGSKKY

B1: d(GTTGGG)5 (ssDNA)
DNA: GTTGGGGTTGGGGTTGGGGTTGGGGTTGGG
Turning to B1, the dissociation constant (Kd) was determined as 0.18 µM.

The values are drawn from publication PMC9728385.
